Experimental data as given in doi:10.1101/2021.04.08.436756.
Like-named read-outs stand apart in the source and are kept apart here.

Tests used:
myc-GIPR-Rluc [1] = target: T1, myc-GIPR-Rluc (UniProt P48546)
T1 sequence: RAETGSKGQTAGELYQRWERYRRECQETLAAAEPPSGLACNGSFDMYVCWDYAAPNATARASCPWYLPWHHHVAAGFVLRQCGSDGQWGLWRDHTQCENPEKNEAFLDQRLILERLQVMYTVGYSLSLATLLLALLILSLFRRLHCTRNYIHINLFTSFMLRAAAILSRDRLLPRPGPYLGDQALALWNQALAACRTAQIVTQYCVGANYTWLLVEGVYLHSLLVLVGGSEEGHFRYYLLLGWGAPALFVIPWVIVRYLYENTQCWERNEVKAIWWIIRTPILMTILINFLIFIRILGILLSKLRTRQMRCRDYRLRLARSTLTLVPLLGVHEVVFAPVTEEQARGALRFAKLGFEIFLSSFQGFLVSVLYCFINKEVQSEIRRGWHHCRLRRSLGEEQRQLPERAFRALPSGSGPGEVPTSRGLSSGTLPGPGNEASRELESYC

myc-GIPR-Rluc [2] = target: T1, myc-GIPR-Rluc; remark: listed apart in the source

GIP (1-42) (from UniProt P09681 52-93) (peptide)
ERK1/2 phosphorylation, biphasic model, high potency component; pEC50 1 (myc-GIPR-Rluc [1]): 9.13 -logEC50
ERK1/2 phosphorylation, biphasic model, low potency component; pEC50 2 (myc-GIPR-Rluc [1]): 6.22 -logEC50
[Ca^2+]i mobilisation, HEK-293S cells with untagged GIPR; pEC50 (myc-GIPR-Rluc [1]): 8.7 -logEC50
cAMP accumulation, 8 min stimulation, HEK-293S cells with untagged GIPR; pEC50 (myc-GIPR-Rluc [1]): 9.83 -logEC50

GIP (D-Ala2) (from UniProt P09681 52-93) (peptide)
ERK1/2 phosphorylation, biphasic model, high potency component; pEC50 1 (myc-GIPR-Rluc [2]): 8.72 -logEC50
ERK1/2 phosphorylation, biphasic model, low potency component; pEC50 2 (myc-GIPR-Rluc [2]): 6.88 -logEC50

GIP (Pro3) (peptide)
ERK1/2 phosphorylation, biphasic model, high potency component; pEC50 1 (myc-GIPR-Rluc [2]): 7.49 -logEC50
ERK1/2 phosphorylation, biphasic model, low potency component; pEC50 2 (myc-GIPR-Rluc [2]): 4.5 -logEC50
